B1: Homeobox protein SIX1 (Homo sapiens), Q15475 (parent)
chain: MSMLPSFGFTQEQVACVCEVLQQGGNLERLGRFLWSLPACDHLHKNESVLKAKAVVAFHRGNFRELYKILESHQFSPHNHPKLQQLWLKAHYVEAEKLRGRPLGAVGKYRVRRKFPLPRTIWDGEETSYCFKEKSRGVLREWYAHNPYPSPREKRELAEATGLTTTQVSNWFKNRRQRDRAAEAKERENTENNNSSSNKQNQLSPLEGGKPLMSSSEEEFSPPQSPDQNSVLLLQGNMGHARSSNYSLPGLTASQPSHGLQTHQHQLQDSLLGPLTSSLVDLGS
partner: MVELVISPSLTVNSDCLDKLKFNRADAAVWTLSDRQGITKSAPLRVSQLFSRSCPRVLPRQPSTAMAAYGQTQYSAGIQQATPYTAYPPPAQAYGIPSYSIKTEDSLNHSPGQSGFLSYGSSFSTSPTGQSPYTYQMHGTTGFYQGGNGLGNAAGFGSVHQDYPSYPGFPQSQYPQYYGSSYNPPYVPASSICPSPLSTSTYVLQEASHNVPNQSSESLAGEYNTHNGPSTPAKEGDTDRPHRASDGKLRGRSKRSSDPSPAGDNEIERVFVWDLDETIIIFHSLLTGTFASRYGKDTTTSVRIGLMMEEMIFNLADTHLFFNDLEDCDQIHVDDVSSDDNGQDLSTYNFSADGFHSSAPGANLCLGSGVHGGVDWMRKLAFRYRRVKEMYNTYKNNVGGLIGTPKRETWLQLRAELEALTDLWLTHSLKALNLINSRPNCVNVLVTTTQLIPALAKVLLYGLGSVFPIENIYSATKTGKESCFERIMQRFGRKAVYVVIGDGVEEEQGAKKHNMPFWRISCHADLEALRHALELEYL
B2: Protein phosphatase EYA2 (Homo sapiens), O00167-1 (parent)
chain: B1 partner
partner: B1 chain

Variants of: B1
Conditions: with EYA2, O00167-1

Row | effect of a mutation on the interaction | Variant
1 | disrupting interaction strength | MSMLPSFGFTQEQVARVCEVLQQGGNLERLGRFLWSLPACDHLHKNESVLKAKAVVAFHRGNFRELYKILESHQFSPHNHPKLQQLWLKAHYVEAEKLRGRPLGAVGKYRVRRKFPLPRTIWDGEETSYCFKEKSRGVLREWYAHNPYPSPREKRELAEATGLTTTQVSNWFKNRRQRDRAAEAKERENTENNNSSSNKQNQLSPLEGGKPLMSSSEEEFSPPQSPDQNSVLLLQGNMGHARSSNYSLPGLTASQPSHGLQTHQHQLQDSLLGPLTSSLVDLGS [C16R]

Variants of: B2
Conditions: with six1_human SIX1, Q15475

Row | effect of a mutation on the interaction | Variant
2 | disrupting interaction strength | MVELVISPSLTVNSDCLDKLKFNRADAAVWTLSDRQGITKSAPLRVSQLFSRSCPRVLPRQPSTAMAAYGQTQYSAGIQQATPYTAYPPPAQAYGIPSYSIKTEDSLNHSPGQSGFLSYGSSFSTSPTGQSPYTYQMHGTTGFYQGGNGLGNAAGFGSVHQDYPSYPGFPQSQYPQYYGSSYNPPYVPASSICPSPLSTSTYVLQEASHNVPNQSSESLAGEYNTHNGPSTPAKEGDTDRPHRASDGKLRGRSKRSSDPSPAGDNEIERVFVWDLDETIIIFHSLLTGTFASRYGKDTTTSVRIGLMMEEMIFNLADTHLFFNDLEDCDQIHVDDVSSDDNGQDLSTYNFSADGFHSSAPGANLCLGSGVHGGVDWMRKLAFRYRRVKEMYNTYKNNVGGLIGTPKRETWLQLRAELEALTDLWLTHSLKALNLINSRPNCVNVLVTTTQLIPALAKVLLYGLGSVFPIENIYSATKTGKESCFERIMQRFGRKAVYVVIGDGVEEEQGAKKHNMPFWRISCHADLEALRHRLELEYL [A532R]
3 | decreasing interaction strength | MVELVISPSLTVNSDCLDKLKFNRADAAVWTLSDRQGITKSAPLRVSQLFSRSCPRVLPRQPSTAMAAYGQTQYSAGIQQATPYTAYPPPAQAYGIPSYSIKTEDSLNHSPGQSGFLSYGSSFSTSPTGQSPYTYQMHGTTGFYQGGNGLGNAAGFGSVHQDYPSYPGFPQSQYPQYYGSSYNPPYVPASSICPSPLSTSTYVLQEASHNVPNQSSESLAGEYNTHNGPSTPAKEGDTDRPHRASDGKLRGRSKRSSDPSPAGDNEIERVFVWDLDETIIIFHSLLTGTFASRYGKDTTTSVRIGLMMEEMIFNLADTHLFFNDLEDCDQIHVDDVSSDDNGQDLSTYNFSADGFHSSAPGANLCLGSGVHGGVDWMRKLAFRYRRVKEMYNTYKNNVGGLIGTPKRETWLQLRAELEALTDLWLTHSLKALNLINSRPNCVNVLVTTTQLIPALAKVLLYGLGSVFPIENIYSATKTGKESCFERIMQRFGRKAVYVVIGDGVEEEQGAKKHNMRFWRISCHADLEALRHALELEYL [P516R]

— IntAct's records for PubMed 23435380
